Test results published in patent US20220174981A1, “PROLINE TOLERANT TRIPEPTIDYL PEPTIDASES AND USES THEREOF” (DuPont Nutrition Biosciences APS, priority 2014, published 2022).
Where a chain is given by its changes, count along the chain named.

Legend:
[1] = molecular target: T1, H-Ala-Pro-pNA (Lactobacillus helveticus, UniProt Q10730); test: X-prolyl-dipeptidyl (PepX) side-activity; type: biochemical; settings: PepN applied in WPI hydrolysis
T1 construct: His-tag; made in house; host or cells: E. coli
T1 sequence (Q10730 1-844 F39I/L44F/S342A/S372G/S496N/T525I/H527L): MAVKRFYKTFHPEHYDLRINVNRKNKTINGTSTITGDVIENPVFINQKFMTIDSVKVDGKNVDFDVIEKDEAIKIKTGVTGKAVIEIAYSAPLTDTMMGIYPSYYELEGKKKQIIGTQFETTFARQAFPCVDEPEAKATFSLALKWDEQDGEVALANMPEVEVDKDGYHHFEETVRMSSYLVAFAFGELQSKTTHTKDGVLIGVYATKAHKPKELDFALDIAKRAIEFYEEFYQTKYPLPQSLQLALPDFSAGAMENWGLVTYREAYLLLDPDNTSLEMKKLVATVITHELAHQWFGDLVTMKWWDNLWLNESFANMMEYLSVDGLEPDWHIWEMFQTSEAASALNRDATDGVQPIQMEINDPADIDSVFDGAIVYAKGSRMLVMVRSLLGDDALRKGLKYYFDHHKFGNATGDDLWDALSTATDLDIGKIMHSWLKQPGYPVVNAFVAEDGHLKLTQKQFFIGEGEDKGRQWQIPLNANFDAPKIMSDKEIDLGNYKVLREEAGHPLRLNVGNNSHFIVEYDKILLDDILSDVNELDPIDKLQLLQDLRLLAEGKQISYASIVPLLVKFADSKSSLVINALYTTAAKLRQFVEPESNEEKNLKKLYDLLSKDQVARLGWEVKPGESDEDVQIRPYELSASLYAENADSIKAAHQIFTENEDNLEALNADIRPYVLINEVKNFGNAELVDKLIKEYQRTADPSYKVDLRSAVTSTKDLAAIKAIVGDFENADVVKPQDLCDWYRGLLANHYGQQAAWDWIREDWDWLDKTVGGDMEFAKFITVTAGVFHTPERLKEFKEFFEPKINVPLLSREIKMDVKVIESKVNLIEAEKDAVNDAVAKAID

[2] = test system: H-Ala-Ala-Ala-OH; test: Pre-hydrolysis of H-Ala-Ala-Ala-OH by PepN, gas chromatography; type: biochemical; settings: 24 h, 40° C., pH 4.0
Protocol: The inhibition experiments were set up as described in Example 14. Furthermore, 1 mg/mL H-Ala-Ala-Ala-OH (Bachem, Switzerland) was subjected to general aminopeptidase (PepN) hydrolysis for 24 h at 40° C. in 12.5 times diluted McIlvaine buffer (pH 4.0). For this, […] H-Ala-Ala-Ala-OH was dissolved in 8 mL 10 times diluted McIlvaine buffer (pH 4.0) and filled up to 10 mL with purified PepN (1,572 nkat/mL [pH 6.5]). After 24 h of hydrolysis, the PepN hydrolysis was terminated by heat inactivation of the PepN (90° C.; 10 min). The degree of pre-hydrolysis of H-Ala-Ala-Ala-OH was determined by gas chromatography (Husek, 1991; FEBS-Letters 280, 354-356). About 0.18 mg/mL alanine was measured, which corresponds to about 54% hydrolyses of the initially applied H-Ala-Ala-Ala-OH.

[3] = test system: azocasein; test: Azocasein assay for endoprotease activity; type: biochemical; settings: PepN applied in WPI hydrolysis
Protocol: (§1) A modified version of the endoprotease assay described by Iversen and Jørgensen, 1995 (Biotechnology Techniques 9, 573-576) is used. An enzyme sample of 50 μl is added to 250 μl of azocasein (0.25% w/v; from Sigma) in 4 times diluted McIlvaine buffer, pH 5 and incubated for 15 min at 40° C. with shaking (800 rpm). The reaction is terminated by adding 50 μl of 2 M trichloroacetic acid (TCA) (from Sigma Aldrich, Denmark) and centrifugation for 5 min at 20,000 g. To a 195 μl sample of the supernatant 65 μl of 1 M NaOH is added and absorbance at 450 nm is measured. One unit of endoprotease activity is defined as the amount which yields an increase in absorbance of 0.1 in 15 min at 40° C. at 450 nm.
as §1, with “Jorgensen,” for “Jørgensen,”, “1995” for “1995 (Biotechnology Techniques 9, 573-576)”, “TCA” for “trichloroacetic acid (TCA) (from Sigma Aldrich, Denmark)”, “C.” for “C. at 450 nm.”
Endopeptidase side-activity was measured with the azocasein as described in Example 2.

[4] = general aminopeptidase (Pep N) of the named origin; cited from earlier work
[5] = test system: sodium caseinate; test: 5% sodium caseinate hydrolysis with endopeptidase, TRI083 and PepN, serine equivalents; type: biochemical; settings: doubling of the PepN activity from 786 to 1572 nkat/mL
[6] = test system: whey protein isolate (WPI); test: 15% WPI hydrolysis at pH 6, 50° C. with endopeptidases, TRI079 and PepN; type: biochemical; settings: 24 h
Protocol: For WPI hydrolysis, Lacprodan-9224 (Arla Food Ingredients, Denmark) was employed, a 15% (w/w) WPI suspension was prepared in H2Od and adjusted to pH 6 with sodium hydroxide. To prevent microbial growth, 0.0285% (w/w) NaN3 was added. Subsequently, 0.5% (w/w on protein substrate) Food Pro® Alkaline Protease and 0.5% (w/w on protein substrate) Food Pro® PNL was added and a volume of 200 μl of the WPI suspension was transferred into each of the 96 wells of a microtiter plate (MTP; VWR, Denmark). Following this, 5 μl of the proline tolerant tripeptidyl peptidase TRI079 containing either 0 or 2188 nkat/mL and 5 ul of PepN (described in EXAMPLE 10) containing either 0, 197 or 393 nkat/mL were added to the particular wells of the MTP. Then, the MTP was sealed and placed in an incubator at 50° C. (iEMS incubator/shaker HT, Thermo Scientific, Denmark).
After 24 h of incubation and shaking at 400 rpm, the hydrolysis was stopped by addition of 20 μl of 2 M trichloroacetic acid (TCA; Sigma-Aldrich, Denmark), except for the reference (0 h) to which the TCA was added prior to endo- and exopeptidase addition. […] The measured absorptions at 340 nm in a MTP reader (VersaMax, Molecular Devices, Denmark) were transformed into serine equivalents employing a serine calibration curve (0-2 mM).

B1: PepN: recombinantly in E. coli expressed and His-tag purified general aminopeptidase (PepN) from Lactobacillus helveticus ATCC 12046 (protein, UniProt Q10730 1-844, looked up)
Aminopeptidase N: T1 sequence (Q10730 1-844 F39I/L44F/S342A/S372G/S496N/T525I/H527L) with I39F, F44L, A342S, G372S, N496S, I525T, L527H
modifications: His-tag
X-prolyl-dipeptidyl (PepX) side-activity [1]: free of
alanine measured ([2]; 1 mg/mL H-Ala-Ala-Ala-OH): About 0.18 mg/mL
hydrolyses of the initially applied H-Ala-Ala-Ala-OH [2]: about 54%
endopeptidase side-activity [3]: free of endopeptidase
Substrate Specificity [4]: Ala, Lys, Arg, Leu, Phe, Val, Ile, and Pro
pH-optimum [4]: 6.5
temp.-range [4]: 10-50 C.
increase of serine equivalents [5]: 10 mM
DH (in %) of WPI hydrolysate ([6]; PepN 197, TRI 079 0 nkat/mL): 18.2%
DH (in %) of WPI hydrolysate ([6]; PepN 393, TRI 079 0 nkat/mL): 18.8%
